Like-named read-outs stand apart in the source and are kept apart here.
What was measured:
[1] = 4-MUL cellobiose tolerance/inhibition assay, dose-response IC50 (Example 2); assay type: biochemical; details: for synergy of double mutant (measured vs expected additive IC50) / 268_+411A Synergistic**↑: measured versus expected additive IC50
Summary of the method: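 CBH I variant supernatants (5 μg/mL final, or undiluted if lower) on 0.5 mM 4-MUL in 100 mM MES pH 6 with 25 mM gluconolactone, fluorescence ex/em 365/450 nm. Activity measured at 6–8 cellobiose levels up to 100 mM; IC50 from four-parameter fit, bottom constrained to knockout background.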

[2] = 4-MUL assay, specific activity (Example 2); assay type: biochemical; details: for 268— +411 A Measured Specific Activity (SA) / 268— +411 A Δ SA* (change in specific activity; ratio of variant: WT): double mutant 268X+411A
Summary of the method: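 CBH I variant supernatants (5 μg/mL final) hydrolysed 0.5 mM 4-MUL in 100 mM MES pH 6 with 25 mM gluconolactone to block BG, with or without cellobiose. Fluorescence (ex/em 365/450 nm) followed over the first 15 min for initial rates, plus a 1 h endpoint before and after carbonate quench. Specific activity from 4-MU standards and HPLC protein quantification.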

[3] = double mutant 268A+411X, averaged IC50 from Tables 8-11, read-out: 268A+411— Measured (merged IC50)
[4] = double mutant 268A+411X, expected IC50 (additive values of single mutations), read-out: 268A+411— Expected IC50
[5] = double mutant 268X+411A, averaged IC50 from Tables 8-11, read-out: 268_+411A Measured (merged IC50)
[6] = double mutant 268X+411A, expected IC50 (additive values of single mutations)

Row | Molecule | IC50 [1, 5] [mM] | 268 +411A Expected IC50 [1, 6] [mM] | 268_+411A Synergistic**↑ ([1]; double mutant 268X+411A) | 268— +411 A Measured Specific Activity (SA) [2] [μmol 4 MU/min/mg CBH I] | 268— +411 A Δ SA* (change in specific activity; ratio of variant: WT) [2] | further results
1 | 268Pro (protein, UniProt P62694 18-513, looked up, variant R268P) Exoglucanase 1: QSACTLQSETHPPLTWQKCSSGGTCTQQTGSVVIDANWRWTHATNSSTNCYDGNTWSSTLCPDNETCAKNCCLDGAAYASTYGVTTSGNSLSIGFVTQSAQKNVGARLYLMASDTTYQEFTLLGNEFSFDVDVSQLPCGLNGALYFVSMDADGGVSKYPTNTAGAKYGTGYCDSQCPRDLKFINGQANVEGWEPSSNNANTGIGGHGSCCSEMDIWEANSISEALTPHPCTTVGQEICEGDGCGGTYSDNPYGGTCDPDGCDWNPYRLGNTSFYGPGSSFTLDTTKKLTVVTQFETSGAINRYYVQNGVTFQQPNAELGSYSGNELNDDYCTAEEAEFGGSSFSDKGGLTQFKKATSGGMVLVMSLWDDYYANMLWLDSTYPTNETSSTPGAVRGSCSTSSGVPAQVESQSPNAKVTFSNIKFGPIGSTGNPSGGNPPGGNRGTTTTRRPATTTGSSPGPTQSHYGQCGGIGYSGPTVCASGTTCQVLNPYYSQCL | – | – | – | – | – | IC50 ([1]; 268 single substitution, averaged IC50 from Tables 8-11, read-out: 268— Measured (merged IC50)): 0.52 mM; 268— Measured Specific Activity (SA) ([2]; 268 single substitution): 3.38 μmol 4 MU/min/mg CBH I; 268— Δ SA* (change in specific activity; ratio of variant: WT) ([2]; 268 single substitution): 4.4
2 | 268A+411Val (protein, UniProt P62694 18-513, looked up, variant R268A R411V) Exoglucanase 1: QSACTLQSETHPPLTWQKCSSGGTCTQQTGSVVIDANWRWTHATNSSTNCYDGNTWSSTLCPDNETCAKNCCLDGAAYASTYGVTTSGNSLSIGFVTQSAQKNVGARLYLMASDTTYQEFTLLGNEFSFDVDVSQLPCGLNGALYFVSMDADGGVSKYPTNTAGAKYGTGYCDSQCPRDLKFINGQANVEGWEPSSNNANTGIGGHGSCCSEMDIWEANSISEALTPHPCTTVGQEICEGDGCGGTYSDNAYGGTCDPDGCDWNPYRLGNTSFYGPGSSFTLDTTKKLTVVTQFETSGAINRYYVQNGVTFQQPNAELGSYSGNELNDDYCTAEEAEFGGSSFSDKGGLTQFKKATSGGMVLVMSLWDDYYANMLWLDSTYPTNETSSTPGAVVGSCSTSSGVPAQVESQSPNAKVTFSNIKFGPIGSTGNPSGGNPPGGNRGTTTTRRPATTTGSSPGPTQSHYGQCGGIGYSGPTVCASGTTCQVLNPYYSQCL | – | – | – | – | – | IC50 [1, 3]: 14.8 mM; IC50 [1, 4]: 3.73 mM; synergy of double mutant (measured vs expected additive IC50) ([1]; double mutant 268A+411X): 4.0; 268A+411— Measured Specific Activity (SA) ([2]; double mutant 268A+411X): 1.78 μmol 4 MU/min/mg CBH I; 268A+411— Δ SA* (change in specific activity; ratio of variant: WT) ([2]; double mutant 268A+411X): 2.3
3 | 268Glu+411A (protein, UniProt P62694 18-513, looked up, variant R268E R411A) Exoglucanase 1: QSACTLQSETHPPLTWQKCSSGGTCTQQTGSVVIDANWRWTHATNSSTNCYDGNTWSSTLCPDNETCAKNCCLDGAAYASTYGVTTSGNSLSIGFVTQSAQKNVGARLYLMASDTTYQEFTLLGNEFSFDVDVSQLPCGLNGALYFVSMDADGGVSKYPTNTAGAKYGTGYCDSQCPRDLKFINGQANVEGWEPSSNNANTGIGGHGSCCSEMDIWEANSISEALTPHPCTTVGQEICEGDGCGGTYSDNEYGGTCDPDGCDWNPYRLGNTSFYGPGSSFTLDTTKKLTVVTQFETSGAINRYYVQNGVTFQQPNAELGSYSGNELNDDYCTAEEAEFGGSSFSDKGGLTQFKKATSGGMVLVMSLWDDYYANMLWLDSTYPTNETSSTPGAVAGSCSTSSGVPAQVESQSPNAKVTFSNIKFGPIGSTGNPSGGNPPGGNRGTTTTRRPATTTGSSPGPTQSHYGQCGGIGYSGPTVCASGTTCQVLNPYYSQCL | 16.7 | 1.8 | 9.3 | 0.58 | 0.8 | –
4 | 268Val+411A (protein, UniProt P62694 18-513, looked up, variant R268V R411A) Exoglucanase 1: QSACTLQSETHPPLTWQKCSSGGTCTQQTGSVVIDANWRWTHATNSSTNCYDGNTWSSTLCPDNETCAKNCCLDGAAYASTYGVTTSGNSLSIGFVTQSAQKNVGARLYLMASDTTYQEFTLLGNEFSFDVDVSQLPCGLNGALYFVSMDADGGVSKYPTNTAGAKYGTGYCDSQCPRDLKFINGQANVEGWEPSSNNANTGIGGHGSCCSEMDIWEANSISEALTPHPCTTVGQEICEGDGCGGTYSDNVYGGTCDPDGCDWNPYRLGNTSFYGPGSSFTLDTTKKLTVVTQFETSGAINRYYVQNGVTFQQPNAELGSYSGNELNDDYCTAEEAEFGGSSFSDKGGLTQFKKATSGGMVLVMSLWDDYYANMLWLDSTYPTNETSSTPGAVAGSCSTSSGVPAQVESQSPNAKVTFSNIKFGPIGSTGNPSGGNPPGGNRGTTTTRRPATTTGSSPGPTQSHYGQCGGIGYSGPTVCASGTTCQVLNPYYSQCL | 9.49 | 1.57 | 6.0 | 1.43 | 1.9 | –
5 | 268Phe+411A (protein, UniProt P62694 18-513, looked up, variant R268F R411A) Exoglucanase 1: QSACTLQSETHPPLTWQKCSSGGTCTQQTGSVVIDANWRWTHATNSSTNCYDGNTWSSTLCPDNETCAKNCCLDGAAYASTYGVTTSGNSLSIGFVTQSAQKNVGARLYLMASDTTYQEFTLLGNEFSFDVDVSQLPCGLNGALYFVSMDADGGVSKYPTNTAGAKYGTGYCDSQCPRDLKFINGQANVEGWEPSSNNANTGIGGHGSCCSEMDIWEANSISEALTPHPCTTVGQEICEGDGCGGTYSDNFYGGTCDPDGCDWNPYRLGNTSFYGPGSSFTLDTTKKLTVVTQFETSGAINRYYVQNGVTFQQPNAELGSYSGNELNDDYCTAEEAEFGGSSFSDKGGLTQFKKATSGGMVLVMSLWDDYYANMLWLDSTYPTNETSSTPGAVAGSCSTSSGVPAQVESQSPNAKVTFSNIKFGPIGSTGNPSGGNPPGGNRGTTTTRRPATTTGSSPGPTQSHYGQCGGIGYSGPTVCASGTTCQVLNPYYSQCL | 9.7 | 1.65 | 5.9 | 2.07 | 2.7 | –
6 | 268A+411Leu (protein, UniProt P62694 18-513, looked up, variant R268A R411L) Exoglucanase 1: QSACTLQSETHPPLTWQKCSSGGTCTQQTGSVVIDANWRWTHATNSSTNCYDGNTWSSTLCPDNETCAKNCCLDGAAYASTYGVTTSGNSLSIGFVTQSAQKNVGARLYLMASDTTYQEFTLLGNEFSFDVDVSQLPCGLNGALYFVSMDADGGVSKYPTNTAGAKYGTGYCDSQCPRDLKFINGQANVEGWEPSSNNANTGIGGHGSCCSEMDIWEANSISEALTPHPCTTVGQEICEGDGCGGTYSDNAYGGTCDPDGCDWNPYRLGNTSFYGPGSSFTLDTTKKLTVVTQFETSGAINRYYVQNGVTFQQPNAELGSYSGNELNDDYCTAEEAEFGGSSFSDKGGLTQFKKATSGGMVLVMSLWDDYYANMLWLDSTYPTNETSSTPGAVLGSCSTSSGVPAQVESQSPNAKVTFSNIKFGPIGSTGNPSGGNPPGGNRGTTTTRRPATTTGSSPGPTQSHYGQCGGIGYSGPTVCASGTTCQVLNPYYSQCL | – | – | – | – | – | IC50 [1, 3]: 22.7 mM; IC50 [1, 4]: 7.12 mM; synergy of double mutant (measured vs expected additive IC50) ([1]; double mutant 268A+411X): 3.2; 268A+411— Δ SA* (change in specific activity; ratio of variant: WT) ([2]; double mutant 268A+411X): 1.3
7 | 268Trp+411A (protein, UniProt P62694 18-513, looked up, variant R268W R411A) Exoglucanase 1: QSACTLQSETHPPLTWQKCSSGGTCTQQTGSVVIDANWRWTHATNSSTNCYDGNTWSSTLCPDNETCAKNCCLDGAAYASTYGVTTSGNSLSIGFVTQSAQKNVGARLYLMASDTTYQEFTLLGNEFSFDVDVSQLPCGLNGALYFVSMDADGGVSKYPTNTAGAKYGTGYCDSQCPRDLKFINGQANVEGWEPSSNNANTGIGGHGSCCSEMDIWEANSISEALTPHPCTTVGQEICEGDGCGGTYSDNWYGGTCDPDGCDWNPYRLGNTSFYGPGSSFTLDTTKKLTVVTQFETSGAINRYYVQNGVTFQQPNAELGSYSGNELNDDYCTAEEAEFGGSSFSDKGGLTQFKKATSGGMVLVMSLWDDYYANMLWLDSTYPTNETSSTPGAVAGSCSTSSGVPAQVESQSPNAKVTFSNIKFGPIGSTGNPSGGNPPGGNRGTTTTRRPATTTGSSPGPTQSHYGQCGGIGYSGPTVCASGTTCQVLNPYYSQCL | 9.97 | 1.69 | 5.9 | 1.37 | 1.8 | –
8 | 411Pro (protein, UniProt P62694 18-513, looked up, variant R411P) Exoglucanase 1: QSACTLQSETHPPLTWQKCSSGGTCTQQTGSVVIDANWRWTHATNSSTNCYDGNTWSSTLCPDNETCAKNCCLDGAAYASTYGVTTSGNSLSIGFVTQSAQKNVGARLYLMASDTTYQEFTLLGNEFSFDVDVSQLPCGLNGALYFVSMDADGGVSKYPTNTAGAKYGTGYCDSQCPRDLKFINGQANVEGWEPSSNNANTGIGGHGSCCSEMDIWEANSISEALTPHPCTTVGQEICEGDGCGGTYSDNRYGGTCDPDGCDWNPYRLGNTSFYGPGSSFTLDTTKKLTVVTQFETSGAINRYYVQNGVTFQQPNAELGSYSGNELNDDYCTAEEAEFGGSSFSDKGGLTQFKKATSGGMVLVMSLWDDYYANMLWLDSTYPTNETSSTPGAVPGSCSTSSGVPAQVESQSPNAKVTFSNIKFGPIGSTGNPSGGNPPGGNRGTTTTRRPATTTGSSPGPTQSHYGQCGGIGYSGPTVCASGTTCQVLNPYYSQCL | – | – | – | – | – | IC50 ([1]; 411 single substitution, averaged IC50 from Tables 8-11, read-out: 411— Measured (merged IC50)): 1.13 mM; 411— Measured Specific Activity (SA) ([2]; 411 single substitution): 0.70 μmol 4 MU/min/mg CBH I; 411— Δ SA* (change in specific activity; ratio of variant: WT) ([2]; 411 single substitution): 0.9

— patent US20140287471A1, “VARIANT CBH I POLYPEPTIDES WITH REDUCED PRODUCT INHIBITION” (BP CORPORATION NORTN AMERICA INC., priority 2011, published 2014)
